Values quoted from earlier work as cited in PMC10955226.

Target: WWC1 WW tandem (Homo sapiens) (UniProt Q8IX03)
UniProt Q8IX03, sequence (Q8IX03 6-86): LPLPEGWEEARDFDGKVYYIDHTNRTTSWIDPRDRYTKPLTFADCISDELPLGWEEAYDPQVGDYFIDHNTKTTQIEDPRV

Kd: 58 nM
Substance: JCAD PPxY motifs (from UniProt Q9P266)
